Assay results: US20220177605A1 (University of Washington, published 2022)

Tests used:
[1] = molecular target: T1, CA-14 bound to cannabidiol (CA-14-CBD complex) (non-covalently bound cannabidiol (CBD); AviTag biotinylated by BirA where immobilised (ELISA)); experiment: BLI (Octet RED96), biotinylated DB on streptavidin sensor, 1 uM CA-14 pre-equilibrated with CBD
T1 construct: Same polypeptide as m1, pre-equilibrated with the small molecule cannabidiol; also called CBD-CA-14 complex; not shown: C-terminal AviTag and His tag
From the text: (§1) With the purified DB nanobodies in hand, we first sought to determine their binding affinities to the CA-14-CBD. CBD might directly bind to selected dimerization binders, which can affect the affinity measurement. To rule out this possibility, the four nanobodies were biotinylated (FIG. 7c) and immobilized on streptavidin biosensors, and the interaction with CBD was detected by BL1. Only minimal binding between CBD and the dimerization binders was detected (data not shown). Moreover, the binding-dissociation dynamics of the CA-14-CBD complex can also affect the measurement of dimerization binder affinities. To address this, the affinity was measured by a BLI assay in which the biosensor-immobilized dimerization binders were interacted with CA-14 pre-equilibrated with varied concentrations of CBD (FIG. 9a). The concentrations of the CA-14-CBD complex in equilibrium were calculated based on input CA-14 and CBD concentrations. The CA-14-CBD complex concentration was approximated to be constant because only a minimal fraction of the complex bound to the biosensor tips during the BLI assay. It was confirmed that CA-14 only interacts with the dimerization binders in the presence of CBD (FIG. 3a).
The nanobody binding kinetics was analyzed using an Octet™ RED96 system (ForteBio) and Streptavidin (SA) or Super Streptavidin (SSA) biosensors. For the anchor-binder analysis, 200 nM biotinylated anchor binders were immobilized on SSA biosensors with a binding assay buffer (1×PBS, pH 7.4, 0.05% Tween 20, 0.2% BSA, 3% methanol; Note: because CBD and THC were dissolved in methanol to make stock solutions, 3% methanol was added to the buffer to fairly compare samples and controls). Serial dilutions of CBD and THC were used for the anchor binder assays. Dissociation constants (KDS) of anchor binder-ligand interactions were calculated based on a steady-state analysis using Octet™ RED96 data analysis software.

[2] = molecular target: T1, CA-14 bound to cannabidiol (CA-14-CBD …); experiment: BLI; biotinylated DB-18 on streptavidin biosensors, analyte CA-14 pre-equilibrated with CBD; value printed in the scheme of ternary complex formation
From the text: as §1, with “It was confirmed that CA-14 only interacts with the dimerization binders in the presence of CBD (FIG. 3a).” left out
The nanobody binding kinetics was analyzed using an Octet™ RED96 system (ForteBio) and Streptavidin (SA) or Super Streptavidin (SSA) biosensors. […] Dissociation constants (KDS) of anchor binder-ligand interactions were calculated based on a steady-state analysis using Octet™ RED96 data analysis software.

Binder	Kd [1] [nM]	koff [1] [s⁻¹]	kon [1] [M⁻¹ s⁻¹]	Kd [2] [nM]
dimerization binder DB-18 (VHH, AviTag biotinylated by BirA (BLI), Purified and tagged in BLI (biotinylated) and SEC; also called 1DB-18; not shown: C-terminal AviTag and His tag (purified form)) VHH: EVQLQASGGGFVQPGGSLRLSCAASGGYSRADDMGWFRQAPGKEREFVSAISFGETDSFYYADSVKGRFTISRDNSKNTVYLQMNSLRAEDTATYYCAYHNYTNMFEYWGQGTQVTVSS	553	0.0227	41000	553
dimerization binder DB-21 (VHH, AviTag biotinylated by BirA (BLI), Purified and tagged in BLI (biotinylated) and SEC; the form used in the sandwich ELISA-like assay is not clearly stated (same id used for all); not shown: C-terminal AviTag and His tag (purified form)) VHH: EVQLQASGGGFVQPGGSLRLSCAASGTTYGQTNMGWFRQAPGKEREFVSAISGLQGRDLYYADSVKGRFTISRDNSKNTVYLQMNSLRAEDTATYYCAFHDFLRMWEYWGQGTQVTVSS	56.4	0.000617	11000	–
dimerization binder DB-6 (VHH, AviTag biotinylated by BirA (BLI), Purified, tagged and biotinylated in BLI; not shown: C-terminal AviTag and His tag (purified form)) VHH: EVQLQASGGGFVQPGGSLRLSCAASGRFSWGEEMGWFRQAPGKEREFVSAISWAATPWQYYADSVKGRFTISRDNSKNTVYLQMNSLRAEDTATYYCADEWHIGHVSYWGQGTQVTVSS	19000	0.182	9600	–
dimerization binder DB-11 (VHH, AviTag biotinylated by BirA (BLI), Purified, tagged and biotinylated in BLI; not shown: C-terminal AviTag and His tag (purified form)) VHH: EVQLQASGGGFVQPGGSLRLSCAASGTTSDNDTMGWFRQAPGKEREFVSAISWNGGRDEYYADSVKGRFTISRDNSKNTVYLQMNSLRAEDTATYYCAYQDNRSWQEYWGQGTQVTVSS	1380	0.084	61000	–
